B1: Azoarcus group I ribozyme (parent)
chain: GUGCCUUGCGCCGGGAAACCACGCAAGGGAUGGUGUCAAAUUCGGCGAAACCUAAGCGCCCGCCCGGGCGUAUGGCAACGCCGAGCCAAGCUUCGGCGCCUGCGCCGAUGAAGGUGUAGAGACUAGACGGCACCCACCUAAGGCAAACGCUAUGGUGAAGGCAUAGUCCAGGGAGUGGCGAAAGUCACACAAACCGG

Variants of: B1
Assay: reverse-splicing fitness (ratio to wild type); higher = more active; in vitro selection; Mg2+ level not given
Summary of the method: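 An in vitro group I ribozyme library with randomized positions was T7-transcribed and gel-purified. In triplicate, 10 pmol RNA in EPPS pH 7.5 was reacted with 50 pmoles of a 30-nt RNA substrate for 1 h at 37 °C across several added MgCl2 levels (1–48 mM), then stopped with EDTA. Products were reverse transcribed from a substrate-complementary primer, PCR-amplified and sequenced (HiSeq 4000). Fitness is a variant's read proportion after selection over that before, normalised to wild type.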

| Variant | reverse-splicing fitness |
| --- | --- |
| A111U A120G A145G C150G C169U U176G | 0.00728 |
| A111U A120G A145G C150G C169U U176C | 0.015 |
| A111U A120G A145G C150G C169U U176A | 0.0113 |
| A111U A120G A145G C150U C169A U176G | 0.00525 |
| A111U A120G A145G C150U C169A U176C | 0.0274 |
| A111U A120G A145G C150U C169A U176A | 0.0224 |
| A111U A120G A145U C150A C169U | 0.0181 |
| A111U A120G A145U C150A C169G | 0.0206 |
| A111U A120G A145U C150A C169A | 0.0164 |
| A111U A120U A145C C150G C169G U176C | 0.00254 |
| A111U A120U A145C C150G C169G U176G | 0.00228 |
| A111U A120U A145C C150G C169G U176A | 0.00251 |
| A111U A120G A145U U176A | 0.0396 |
| A111U A120G A145U U176G | 0.00581 |
| A111U A120G A145U U176C | 0.0483 |
| A111U A120G A145C C150U U176A | 0.0191 |
| A111U A120G A145C C150U U176C | 0.0201 |
| A111U A120G A145C C150U U176G | 0.00458 |
| A111U A120G C169U U176G | 0.00807 |
| A111U A120G C169U U176A | 0.0505 |
| A111U A120G C169U U176C | 0.055 |

| Variant | reverse-splicing fitness |
| --- | --- |
| A111U A120U A145C C150G C169U U176C | 0.0029 |
| A111U A120U A145C C150G C169U U176A | 0.00301 |
| A111U A120U A145C C150G C169U U176G | 0.00228 |
| A111U A120U A145C | 0.518 |
| A111U A120U A145G | 0.593 |
| A111U A120G C169G | 0.218 |
| A111U A120G C169U | 0.155 |
| A111U A120G C169A | 0.116 |
| A111U A120G A145G C150U C169U U176C | 0.0447 |
| A111U A120G A145G C150U C169U U176G | 0.00563 |
| A111U A120G A145G C150U C169U U176A | 0.0386 |
| A111U A120G A145C C150U C169U U176C | 0.0209 |
| A111U A120G A145C C150U C169U U176G | 0.00469 |
| A111U A120G A145C C150U C169U U176A | 0.0278 |
| A111U A120G A145G C150U U176A | 0.0295 |
| A111U A120G A145G C150U U176C | 0.0446 |
| A111U A120G A145G C150U U176G | 0.00725 |
| A111U A120U A145C C169A | 0.00435 |
| A111U A120U A145C C169U | 0.0629 |
| A111U A120U A145C C169G | 0.0459 |
| A111U A120G A145U C150U U176G | 0.0059 |

| Variant | reverse-splicing fitness |
| --- | --- |
| A111U A120G A145U C150U U176A | 0.0287 |
| A111U A120G A145U C150U U176C | 0.0388 |
| A111U A120G C150U C169A U176A | 0.0189 |
| A111U A120G C150U C169A U176C | 0.0245 |
| A111U A120G C150U C169A U176G | 0.00517 |
| A111U A120G A145C C169G U176G | 0.00442 |
| A111U A120G A145C C169G U176A | 0.0371 |
| A111U A120G A145C C169G U176C | 0.0387 |
| A111U A120G A145U C150U C169U U176G | 0.0055 |
| A111U A120G A145U C150U C169U U176C | 0.0395 |
| A111U A120G A145U C150U C169U U176A | 0.0396 |
| A111U A120G A145G C150A C169U | 0.028 |
| A111U A120G A145G C150A C169A | 0.0192 |
| A111U A120G A145G C150A C169G | 0.0343 |
| A111U A120G A145G C150A C169U U176G | 0.00606 |
| A111U A120G A145G C150A C169U U176C | 0.024 |
| A111U A120G A145G C150A C169U U176A | 0.0247 |
| A111U A120G C150A C169G U176G | 0.00494 |
| A111U A120G C150A C169G U176C | 0.0291 |
| A111U A120G C150A C169G U176A | 0.0251 |
| A111U A120G A145G C150G C169A U176A | 0.0126 |

| Variant | reverse-splicing fitness |
| --- | --- |
| A111U A120G A145G C150G C169A U176C | 0.0131 |
| A111U A120G A145G C150G C169A U176G | 0.00787 |
| A111U A120G C150G U176A | 0.00753 |
| A111U A120G C150G U176G | 0.00275 |
| A111U A120G C150G U176C | 0.0112 |
| A111U A120G A145C C169A U176G | 0.00414 |
| A111U A120G A145C C169A U176A | 0.0217 |
| A111U A120G A145C C169A U176C | 0.0194 |
| A111U A120G A145C C150G U176A | 0.00783 |
| A111U A120G A145C C150G U176G | 0.00302 |
| A111U A120G A145C C150G U176C | 0.0143 |
| A111U A120G C150A C169U U176G | 0.0082 |
| A111U A120G C150A C169U U176A | 0.0295 |
| A111U A120G C150A C169U U176C | 0.0205 |
| A111U A120U A145G C150A | 0.0883 |
| A111U A120G A145U C150U C169U | 0.105 |
| A111U A120G A145U C150U C169A | 0.0657 |
| A111U A120G A145U C150U C169G | 0.129 |
| A111U A120U A145C C150A C169G U176C | 0.00308 |
| A111U A120U A145C C150A C169G U176G | 0.00184 |

Source: the RNAGym collection of RNA variant scans (doi:10.1093/molbev/msab373)
